Results reported in article PMC5374532, “Rational mutagenesis by engineering disulphide bonds improves Kluyveromyces lactis beta-galactosidase for high-temperature industrial applications” (Scientific Reports, 2017).

Substrate: O=[N+]([O-])c1ccc(O[C@@H]2O[C@H](CO)[C@H](O)[C@H](O)[C@H]2O)cc1
Assay: purified protein
Format: biochemical, Kluyveromyces lactis
Conditions: Z buffer (100 mM Na2HPO4, 40 mM NaH2PO4, 10 mM KCl, 1.6 mM MgSO4), 30 °C, 0.3 μg/mL enzyme, substrate 0-20 mM

B1: Kl-β-Gal (Kluyveromyces lactis β-galactosidase) (Kluyveromyces lactis NRRL Y-1140) (protein)
chain: SCLIPENLRNPKKVHENRLPTRAYYYDQDIFESLNGPWAFALFDAPLDAPDAKNLDWETAKKWSTISVPSHWELQEDWKYGKPIYTNVQYPIPIDIPNPPTVNPTGVYARTFELDSKSIESFEHRLRFEGVDNCYELYVNGQYVGFNKGSRNGAEFDIQKYVSEGENLVVVKVFKWSDSTYIEDQDQWWLSGIYRDVSLLKLPKKAHIEDVRVTTTFVDSQYQDAELSVKVDVQGSSYDHINFTLYEPEDGSKVYDASSLLNEENGNTTFSTKEFISFSTKKNEETAFKINVKAPEHWTAENPTLYKYQLDLIGSDGSVIQSIKHHVGFRQVELKDGNITVNGKDILFRGVNRHDHHPRFGRAVPLDFVVRDLILMKKFNINAVRNSHYPNHPKVYDLFDKLGFWVIDEADLETHGVQEPFNRHTNLEAEYPDTKNKLYDVNAHYLSDNPEYEVAYLDRASQLVLRDVNHPSIIIWSLGNEACYGRNHKAMYKLIKQLDPTRLVHYEGDLNALSADIFSFMYPTFEIMERWRKNHTDENGKFEKPLILCEYGHAMGNGPGSLKEYQELFYKEKFYQGGFIWEWANHGIEFEDVSTADGKLHKAYAYGGDFKEEVHDGVFIMDGLCNSEHNPTPGLVEYKKVIEPVHIKIAHGSVTITNKHDFITTDHLLFIDKDTGKTIDVPSLKPEESVTIPSDTTYVVAVLKDDAGVLKAGHEIAWGQAELPLKVPDFVTETAEKAAKINDGKRYVSVESSGLHFILDKLLGKIESLKVKGKEISSKFEGSSITFWRPPTNNDEPRDFKNWKKYNIDLMKQNIHGVSVEKGSNGSLAVVTVNSRISPVVFYYGFETVQKYTIFANKINLNTSMKLTGEYQPPDFPRVGYEFWLGDSYESFEWLGRGPGESYPDKKESQRFGLYDSKDVEEFVYDYPQENGNHTDTHFLNIKFEGAGKLSIFQKEKPFNFKISDEYGVDEAAHACDVKRYGRHYLRLDHAIHGVGSEACGPAVLDQYRLKAQDFNFEFDLAFE
notes: full length, N-terminal FLAG tag kept (YEpFLAG vector); monomer 118 kDa; active as dimer and tetramer
Km: 2150 ± 520 µM
Vmax: 71.9 µmol/min/mg
